Patent US10494415B2, “Insulin-like growth factor 2 (IGF2) binding agents” (Cancer Research Technology Limited, priority 2015, dated 2019)

Target: IGF2 (Homo sapiens, UniProt P01344)
Test: SPR (Biacore T200) of recombinant IGF2R domain 11 mutants on immobilised biotinylated IGF2
Assay type: binding
Set-up: purchased GroPep
Details: for off rate / koff (figure legend) / on rate / kon (figure legend): FIG. 2, 3
Excerpt: Surface plasmon resonance (SPR) binding analysis of recombinant M6P/IGF2R domain 11 mutants interaction with IGF2. Kon indicates association (on) rate; koff, dissociation (off) rate; RU, response units. Binding to IGF2 assessed with BIAcore T200 using purified biotinylated IGF2 and IGF1 on a streptavidin biosensor chip. Recombinant proteins were expressed either in E. coli and/or P. pastoris. All the mutants in the FG and CD loops are on the domain 11^AB5 background for the AB loop unless otherwise stated. All experiments were carried out at 25° C. in HBS-EP buffer (pH 7.4), were repeated 2-5 times on two independent BIAcore chips. nd=not determined. Data for KD expressed as mean of each experiment, and means of kon and koff are shown.
Measurements were carried out at 25° C. in HBS-EP buffer (pH 7.4) (nd=not determined, np=no protein). Data for KD expressed as mean of each experiment, and means of kon and koff are shown.
Measurements were carried out at 25° C. in MES-EP buffer, 20 mM MES pH 6.5, 150 mM NaCl, 3 mM EDTA, and 0.005% (v/v) surfactant P20). Data for KD expressed as mean of each experiment, and means of kon and koff are shown.
Final kinetic analysis of mutants by SPR was conducted using a Biacore T200 biosensor at 25° C. in either HBS-EP (10 mM HEPES pH 7.4, 150 mM NaCl, 3 mM EDTA, and 0.005% (v/v) surfactant P20) or MES-EP (20 mM MES pH 6.5, 150 mM NaCl, 3 mM EDTA, and 0.005% (v/v) surfactant P20) at a flow-rate of 40 μL min^−1. […] For the analysis of the Fc-domain 11^AB5 interaction, approximately 50 RU of a biotinylated IGF2:biotinylated ubiquitin mixture (1:8 proportion) was immobilized on the CM5-streptavidin chip. This interaction was also analysed by immobilizing the Fc-domain 11^AB5 and Fc-domain 11^AB5-RHH (or Fc-domain 11^I1572A as control) by Human Antibody Capture (monoclonal mouse anti-human IgG antibody immobilised on a CM5 chip by amine coupling, GE Healthcare) with and without human IgG1 Fc fragment (Bethyl Laboratories, UK) in the control flow cell. Increasing concentrations of IGF2^1-67, proIGF2^1-104, proIGF2^1-156 and IGF1 ranging from 0.125 to 32 nM were injected. T200 BiaEvaluation software (GE Healthcare) was used to fit the resulting curves according to a 1:1 binding model. Steady state affinities were determined using the kinetic data, taking the response average at 5 seconds before injection end and for 5 seconds average. Thermodynamic data was performed across the temperature range of 10° C. to 30° C., van't Hoff and Erying plots generated and ΔH, −TΔS and ΔG values determined as previously described.

Chain of IGF2 (P01344 25-91): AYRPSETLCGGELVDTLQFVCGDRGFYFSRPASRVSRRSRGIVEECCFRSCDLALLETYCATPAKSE

Kinetics koff (Table 1, 25° C., HBS-EP pH 7.4) [s⁻¹]	Kinetics kon (Table 1, 25° C., HBS-EP pH 7.4) [M⁻¹ s⁻¹]	Molecule	also measured
0.0034	1.18e+06	K1631W: domain 11 HI loop mutant K1631W, probably AB5 background (protein) MKSNEHDDCQVTNPSTGHLFDLSSLSGRAGFTAAYAKGWGVYMSICGENENCPPGVGACFGQTRISVGKANKRLRYVDQVLQLVYKDGSPCPSKSGLSYKSVISFVCRPEAGPTNRPMLISLDWQTCTLFFSWHTPLACEQATECSV	Kd (pH 7.4): 3.23 nM
0.0250	1.57e+06	S1602A: domain 11 AB5 background + FG loop S1602A (protein) MKSNEHDDCQVTNPSTGHLFDLSSLSGRAGFTAAYAKGWGVYMSICGENENCPPGVGACFGQTRISVGKANKRLRYVDQVLQLVYKDGSPCPSKAGLSYKSVISFVCRPEAGPTNRPMLISLDKQTCTLFFSWHTPLACEQATECSV	
0.0112	3.61e+06	S1602H: domain 11 AB5 background + FG loop S1602H (protein) MKSNEHDDCQVTNPSTGHLFDLSSLSGRAGFTAAYAKGWGVYMSICGENENCPPGVGACFGQTRISVGKANKRLRYVDQVLQLVYKDGSPCPSKHGLSYKSVISFVCRPEAGPTNRPMLISLDKQTCTLFFSWHTPLACEQATECSV	
0.0112	2.38e+06	S1602N: domain 11 AB5 background + FG loop S1602N (protein) MKSNEHDDCQVTNPSTGHLFDLSSLSGRAGFTAAYAKGWGVYMSICGENENCPPGVGACFGQTRISVGKANKRLRYVDQVLQLVYKDGSPCPSKNGLSYKSVISFVCRPEAGPTNRPMLISLDKQTCTLFFSWHTPLACEQATECSV	
0.0251	5.28e+06	K1601R: domain 11 AB5 background + FG loop K1601R (protein) MKSNEHDDCQVTNPSTGHLFDLSSLSGRAGFTAAYAKGWGVYMSICGENENCPPGVGACFGQTRISVGKANKRLRYVDQVLQLVYKDGSPCPSRSGLSYKSVISFVCRPEAGPTNRPMLISLDKQTCTLFFSWHTPLACEQATECSV	

More lines, now with the values behind:

Molecule	Kinetics koff (Table 1, 25° C., HBS-EP pH 7.4) [s⁻¹]	Kinetics kon (Table 1, 25° C., HBS-EP pH 7.4) [M⁻¹ s⁻¹]	also measured
S1600V: domain 11 AB5 background + FG loop S1600V (protein) MKSNEHDDCQVTNPSTGHLFDLSSLSGRAGFTAAYAKGWGVYMSICGENENCPPGVGACFGQTRISVGKANKRLRYVDQVLQLVYKDGSPCPVKSGLSYKSVISFVCRPEAGPTNRPMLISLDKQTCTLFFSWHTPLACEQATECSV	>0.2		
AB5 Q1569R P1597H S1602H: domain 11 AB5 + Q1569R, P1597H, S1602H (AB5-RHH) (protein) MKSNEHDDCQVTNPSTGHLFDLSSLSGRAGFTAAYAKGWGVYMSICGENENCPPGVGACFGRTRISVGKANKRLRYVDQVLQLVYKDGSHCPSKHGLSYKSVISFVCRPEAGPTNRPMLISLDKQTCTLFFSWHTPLACEQATECSV			off rate / koff (figure legend): 0.0038 s⁻¹; on rate / kon (figure legend): 5.9e+06 M⁻¹ s⁻¹; Kinetics koff (Table 3, 25° C., HBS-EP pH 7.4): 0.0038 s⁻¹; Kinetics kon (Table 3, 25° C., HBS-EP pH 7.4): 5.9e+06 M⁻¹ s⁻¹; Kinetics koff (Table 4, MES-EP pH 6.5): 0.0030 s⁻¹; Kinetics kon (Table 4, MES-EP pH 6.5): 4.41e+06 M⁻¹ s⁻¹
P1599V: domain 11 FG loop mutant P1599V, AB5 background unless otherwise stated (protein) MKSNEHDDCQVTNPSTGHLFDLSSLSGRAGFTAAYAKGWGVYMSICGENENCPPGVGACFGQTRISVGKANKRLRYVDQVLQLVYKDGSPCVSKSGLSYKSVISFVCRPEAGPTNRPMLISLDKQTCTLFFSWHTPLACEQATECSV	>0.1		
K1601A: domain 11 AB5 background + FG loop K1601A (protein) MKSNEHDDCQVTNPSTGHLFDLSSLSGRAGFTAAYAKGWGVYMSICGENENCPPGVGACFGQTRISVGKANKRLRYVDQVLQLVYKDGSPCPSASGLSYKSVISFVCRPEAGPTNRPMLISLDKQTCTLFFSWHTPLACEQATECSV	0.0220	3.26e+06	
S1600Y: domain 11 AB5 background + FG loop S1600Y (protein) MKSNEHDDCQVTNPSTGHLFDLSSLSGRAGFTAAYAKGWGVYMSICGENENCPPGVGACFGQTRISVGKANKRLRYVDQVLQLVYKDGSPCPYKSGLSYKSVISFVCRPEAGPTNRPMLISLDKQTCTLFFSWHTPLACEQATECSV	>0.2		
P1599G: domain 11 FG loop mutant P1599G, AB5 background unless otherwise stated (protein) MKSNEHDDCQVTNPSTGHLFDLSSLSGRAGFTAAYAKGWGVYMSICGENENCPPGVGACFGQTRISVGKANKRLRYVDQVLQLVYKDGSPCGSKSGLSYKSVISFVCRPEAGPTNRPMLISLDKQTCTLFFSWHTPLACEQATECSV	>0.2		
AB3 Q1569R P1597H S1602H G1603K: domain 11 AB3 + Q1569R, P1597H, S1602H, G1603K (protein) MKSNEHDDCQVTNPSTGHLFDLSSLSGRAGFTAAYSKSGVVYMSICGENENCPPGVGACFGRTRISVGKANKRLRYVDQVLQLVYKDGSHCPSKHKLSYKSVISFVCRPEAGPTNRPMLISLDKQTCTLFFSWHTPLACEQATECSV			off rate / koff (figure legend): 0.0108 s⁻¹; on rate / kon (figure legend): 1.75e+07 M⁻¹ s⁻¹; Kinetics koff (Table 3, 25° C., HBS-EP pH 7.4): 0.0108 s⁻¹; Kinetics kon (Table 3, 25° C., HBS-EP pH 7.4): 1.75e+07 M⁻¹ s⁻¹; Kinetics koff (Table 4, MES-EP pH 6.5): 0.0087 s⁻¹; Kinetics kon (Table 4, MES-EP pH 6.5): 2.43e+07 M⁻¹ s⁻¹
S1600N: domain 11 AB5 background + FG loop S1600N (protein) MKSNEHDDCQVTNPSTGHLFDLSSLSGRAGFTAAYAKGWGVYMSICGENENCPPGVGACFGQTRISVGKANKRLRYVDQVLQLVYKDGSPCPNKSGLSYKSVISFVCRPEAGPTNRPMLISLDKQTCTLFFSWHTPLACEQATECSV	0.0910	3.95e+06	
S1600L: domain 11 AB5 background + FG loop S1600L (protein) MKSNEHDDCQVTNPSTGHLFDLSSLSGRAGFTAAYAKGWGVYMSICGENENCPPGVGACFGQTRISVGKANKRLRYVDQVLQLVYKDGSPCPLKSGLSYKSVISFVCRPEAGPTNRPMLISLDKQTCTLFFSWHTPLACEQATECSV	>0.2		
P1599A: domain 11 FG loop mutant P1599A, AB5 background unless otherwise stated (protein) MKSNEHDDCQVTNPSTGHLFDLSSLSGRAGFTAAYAKGWGVYMSICGENENCPPGVGACFGQTRISVGKANKRLRYVDQVLQLVYKDGSPCASKSGLSYKSVISFVCRPEAGPTNRPMLISLDKQTCTLFFSWHTPLACEQATECSV	>0.1		
S1600A: domain 11 AB5 background + FG loop S1600A (protein) MKSNEHDDCQVTNPSTGHLFDLSSLSGRAGFTAAYAKGWGVYMSICGENENCPPGVGACFGQTRISVGKANKRLRYVDQVLQLVYKDGSPCPAKSGLSYKSVISFVCRPEAGPTNRPMLISLDKQTCTLFFSWHTPLACEQATECSV	0.2126	2.39e+06	
